The labels stand for the following.
B1: CPEB3 Ribozyme (parent)
chain: GGGGGCCACAGCAGAAGCGUUCACGUCGCGGCCCCUGUCAGAUUCUGGUGAAUCUGCGAAUUCUGCUGU

This data set covers variants of B1. Put plainly: self-cleavage, relative activity (ratio to wild type); higher = more cleavage; co-transcriptional.
Consider G31U G68A, for which the self-cleavage stood at 0.957. Consider C32A A60C, for which the self-cleavage is 0.27. The result for C32A A60U reads 0.257; that for C32A C57G, 0.27. With C32A C57U, the self-cleavage worked out at 0.25.

For the variant G31U U69A, the self-cleavage came out at 0.876. Regarding G31U U69C, the self-cleavage came out at 1.02.

Take G30U C57U: the self-cleavage came out at 0.207.

Turning to G30U C57A, the self-cleavage stood at 0.235. With G31C G47A, the self-cleavage was determined as 0.249. For G31C G47C, the self-cleavage came to 0.271. As to G31C G47U, the self-cleavage amounted to 0.239.

G31C C54A: the self-cleavage was 0.189. As to G31C C54G, the self-cleavage stood at 0.183. Consider G31C C33G, for which the self-cleavage came to 0.443. G31C C33A: the self-cleavage worked out at 0.338. Consider G31U U46C, for which the self-cleavage came out at 0.725. On to G31U U46G, for which the self-cleavage came to 0.638. Turning to G31U U46A, the self-cleavage is 0.785. On to G31C U44G, for which the self-cleavage was determined as 0.242. Consider G31C U44A, for which the self-cleavage was found to be 0.257. With C32A C35A, the self-cleavage is 0.26.

With C32A G50C, the self-cleavage was found to be 0.716. For C32A G50A, the self-cleavage was determined as 0.693. For the variant G31C U49G, the self-cleavage was 0.175. Turning to G31C U49C, the self-cleavage came out at 0.178. As to G31C U49A, the self-cleavage worked out at 0.286.

G31U G56A: the self-cleavage came to 0.386. With G31U G56U the figure was 0.568. With G31C A59U the figure was 0.24.

For G31C A59C, the self-cleavage is 0.178. For G31A C35G, the self-cleavage came to 0.26. Regarding C32A G58C, the self-cleavage was found to be 0.841.

Turning to C32A G58A, the self-cleavage was 0.693. The result for G30U U38C reads 0.253; that for G30U U38A, 0.201.

For the variant G30U U38G, the self-cleavage turned out to be 0.153. With G31C U67G, the self-cleavage is 0.355. Take G31C U67A: the self-cleavage is 0.277.

Regarding G31U U61G, the self-cleavage is 0.351. Take G31U U61A: the self-cleavage worked out at 0.289. With G31A U61A the figure was 0.364; with G31A U61G, 0.381; with G31U C57A, 0.208. With G31U C57U the figure was 0.229; with G31A A60G, 0.475. With G31C C32U the figure was 0.235; with G31C C32A, 0.474. G31C U53A: the self-cleavage turned out to be 0.208. As to G31U U49A, the self-cleavage was 0.71. For G31U U49C, the self-cleavage is 0.731. For G31U U62G, the self-cleavage was 0.274. The result for G31U U62C reads 0.226; that for G30U G58A, 0.284. Take G30U G58C: the self-cleavage came out at 0.302.

Consider G30U G58U, for which the self-cleavage was determined as 0.439. As to C32A A42C, the self-cleavage stood at 0.342. The result for C32A A42U reads 0.504; that for G31A C39U, 0.589. Turning to G31A C39G, the self-cleavage was 0.733. As to G31A A40G, the self-cleavage amounted to 0.771. For G31A A40C, the self-cleavage is 0.218.

With G31A A40U, the self-cleavage came to 0.533. G31C C66U: the self-cleavage is 0.264.

Turning to G31C C66A, the self-cleavage amounted to 0.252. Turning to G31C C66G, the self-cleavage amounted to 0.155. For the variant G31C U43G, the self-cleavage came out at 0.276. On to G31C U43C, for which the self-cleavage was determined as 0.289. With G31U C33U, the self-cleavage turned out to be 0.4. For G31U C33G, the self-cleavage worked out at 0.2.

Turning to G31A C63G, the self-cleavage was found to be 0.391.

Take G31A C63U: the self-cleavage amounted to 0.895. As to G31A C33A, the self-cleavage turned out to be 0.266. Consider G31A C33U, for which the self-cleavage is 0.587.

Turning to G31C A52U, the self-cleavage is 0.184. Consider G31C A52G, for which the self-cleavage is 0.197. For G31C A52C, the self-cleavage came out at 0.266. On to G30U U67A, for which the self-cleavage was 0.735. For G31C U64C, the self-cleavage was determined as 0.273. Take G31C U64A: the self-cleavage was 0.111. On to G31C C63G, for which the self-cleavage stood at 0.133. For G31C C63A, the self-cleavage is 0.233. On to G31C C63U, for which the self-cleavage turned out to be 0.251. As to G31C G48A, the self-cleavage worked out at 0.24. Turning to G31C G48C, the self-cleavage is 0.222.

Turning to G31C G48U, the self-cleavage is 0.247.

Turning to C32A G68A, the self-cleavage was 0.994. Take C32A C54G: the self-cleavage was found to be 0.333. For the variant C32A C54U, the self-cleavage turned out to be 0.803. The result for C32A C54A reads 0.328. Take G31C U36A: the self-cleavage amounted to 0.155. For G31C U36G, the self-cleavage came out at 0.475.

For the variant G31C U36C, the self-cleavage was found to be 0.203. Turning to G31U C39G, the self-cleavage amounted to 0.437. The result for G31U C39U reads 0.357; that for G31U C39A, 0.319.

On to G31A U67C, for which the self-cleavage was found to be 0.984.

G31A U67A: the self-cleavage came to 0.951. As for G31U U43C, the self-cleavage was determined as 0.393. As to G31U U43G, the self-cleavage is 0.454. For G31U U43A, the self-cleavage came out at 0.443. On to G31C G50U, for which the self-cleavage worked out at 0.238. In the case of G31C G50C, the self-cleavage was 0.245.

Regarding G31C C35A, the self-cleavage is 0.241. G31C C35U: the self-cleavage was 0.189. For the variant G31A A42U, the self-cleavage came to 0.638. For the variant G31A A42G, the self-cleavage worked out at 0.794.

For G31A G37A, the self-cleavage stood at 0.193.

Turning to G31A G37C, the self-cleavage worked out at 0.231. Regarding G31U A52G, the self-cleavage is 0.775. As for G31U A52U, the self-cleavage was found to be 0.655.

With G31C G68U, the self-cleavage is 0.392.

Take G31C G68C: the self-cleavage was 0.414.

Take C32A A40C: the self-cleavage was 0.321. With C32A A40G the figure was 0.711; with C32A A40U, 0.376. With G31A U43G the figure was 0.524. G31A U43A: the self-cleavage turned out to be 0.59.

G31A U43C: the self-cleavage was determined as 0.601. With G31A G68A the figure was 1.03; with G31A G68C, 1.02.

Turning to G31A G68U, the self-cleavage was 1. Consider C32A C66U, for which the self-cleavage worked out at 0.903. For the variant C32A C66A, the self-cleavage stood at 0.698. For G31U G41U, the self-cleavage is 0.398.

With G31U U36A, the self-cleavage came out at 0.189. For G31U U36G, the self-cleavage is 0.738. Turning to G30U U53C, the self-cleavage worked out at 0.276. Turning to G30U U53G, the self-cleavage was 0.241. For the variant G30U U53A, the self-cleavage came to 0.297.

Consider G31C U46G, for which the self-cleavage amounted to 0.205. G31C U46C: the self-cleavage turned out to be 0.164.

With G31C U46A, the self-cleavage is 0.263. For the variant G31U C45G, the self-cleavage worked out at 0.559.

On to G31U C45A, for which the self-cleavage was determined as 0.662.

For G30U U46C, the self-cleavage came to 0.39. For G30U U46A, the self-cleavage was 0.44. G31U C35G: the self-cleavage is 0.252.

Regarding G31U C66A, the self-cleavage is 0.489. With G31U C66U the figure was 0.732. On to G31U C66G, for which the self-cleavage was 0.415.

On to G30U U49G, for which the self-cleavage was found to be 0.352. The result for G30U U49C reads 0.456; that for G30U U49A, 0.365; that for C32A A59C, 0.372. As for C32A A59G, the self-cleavage was determined as 0.61. G31C G65A: the self-cleavage worked out at 0.147. With G31C G65U the figure was 0.136; with G31U A51G, 0.636; with G31C C34U, 0.281.

On to G31C C34G, for which the self-cleavage turned out to be 0.382. On to G31A C34A, for which the self-cleavage was determined as 0.239.

Turning to G31A U49A, the self-cleavage worked out at 0.886. G31A U49G: the self-cleavage amounted to 0.812.

G31A U49C: the self-cleavage was 0.938. With C32A G56U, the self-cleavage was determined as 0.683.

As for C32A G56A, the self-cleavage turned out to be 0.674.

Turning to G31U G48C, the self-cleavage is 0.812. With G31U G48U, the self-cleavage was found to be 0.797. Turning to G31U G48A, the self-cleavage was determined as 0.756. Consider G31U U67G, for which the self-cleavage was determined as 0.919.

Take G31U U67A: the self-cleavage came to 0.89.

As to G30U U36C, the self-cleavage turned out to be 0.179. The result for G30U U36A reads 0.198. For the variant G30U U36G, the self-cleavage was found to be 0.175.

Regarding G31U G47U, the self-cleavage was determined as 0.795. G31U G47A: the self-cleavage is 0.787.

The values above are taken from the RNAGym collection of RNA variant scans (doi:10.7554/elife.80360).
